Test results: patent US20200362033A1 (Daiichi Sankyo, published 2020)

Key:
[1] = molecular target: T1, human-cynomolgus monkey chimeric CD147 hCD147-mu3, on CHO-K1 cells (human, UniProt P35613 140-385); assay: flow cytometry, transfected CHO-K1 cells
T1 construct: also called hCD147-mu3_pcDNA3.1; CD147 with mu3 mutation
T1 chain: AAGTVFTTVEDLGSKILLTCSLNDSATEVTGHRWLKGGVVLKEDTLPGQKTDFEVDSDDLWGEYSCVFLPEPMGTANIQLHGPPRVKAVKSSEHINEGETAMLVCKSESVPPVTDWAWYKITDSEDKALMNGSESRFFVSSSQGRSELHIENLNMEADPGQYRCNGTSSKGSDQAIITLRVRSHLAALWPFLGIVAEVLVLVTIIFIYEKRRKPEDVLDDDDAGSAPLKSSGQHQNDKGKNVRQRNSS

[2] = molecular target: T2, human CD147 variant 2 expressed on CHO-K1 cells (pcDNA-DEST40-CD147v2) (human, UniProt P35613 140-385); assay: flow cytometry, CHO-K1 cells transfected with human CD147v2, antibody 10 µg/ml, anti-mouse IgG-FITC (Example 1)-8)
T2 construct: also called CHO-K1-hCD147v2; human CD147 expressing CHO-K1 cells
T2 sequence: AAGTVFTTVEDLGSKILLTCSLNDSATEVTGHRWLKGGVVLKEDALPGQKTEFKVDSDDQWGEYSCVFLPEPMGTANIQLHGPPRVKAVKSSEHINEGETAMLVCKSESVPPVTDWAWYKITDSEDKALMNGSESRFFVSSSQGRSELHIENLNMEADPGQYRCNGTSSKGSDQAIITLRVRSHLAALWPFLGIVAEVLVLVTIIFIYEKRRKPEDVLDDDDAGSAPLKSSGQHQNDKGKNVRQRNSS

B1: 2P10F2 (antibody, V domains shown)
VH: EVQLQESGPGLVKPSQSLSLTCSVTGYSITSNYWGWIRKFPGNKMEWMGCITYSGGTSYNPSLKSRISITRDTSKNQFFLQLNSVTTEDTATYYCASSYTSGDVDYWGQGVMVTVSS
VL: DIQMTQSPASLSASLGETVSIECLASEGISNSLAWYQQKPGKSPQLLIYGASSLQDGVPSRFSGSGSGTQYSLKISGMQPEDEGVYYCQQGYKYPFTFGSGTKLEIKR
notes: also called 2P10F2 rat antibody
B1: no binding (tested: 10 µg/ml) [1].

B2: LN22R8 (antibody, V domains shown)
VH: QIQLVQSGPELKKPGETVKISCKASGYTFTNYGMNWVKQAPGKGLKWMGWINTYTGEPTYADDFKGRFAFSLETSASTAYLQINNLKNEDTATYFCARGGYGNYGAGAMDYWGQGTSVTVSS
VL: DIQMTQSPSSLSASLGERVSLTCRASLEISGFLSWLQQKPDGTIKRLIYAASILDSGVPKRFSGSRSGSDYSLTISSLESEDFADYYCLQYASYPWTFGGGTKLEIKR
notes: also called mouse anti-human CD147 antibody (LN22R8)
B2: no binding (tested: 10 µg/ml) [1]; binds [2].
